Assays:
[1] = biological target: Q13148; experiment: dynamic light scattering + other: pulsed-field-gradient NMR diffusion; fully oxidized sample (5 mM H2O2, about 31 h); size distribution of aggregate particles fitted to both diffusion coefficients (Eq. 6), NMR on peak N265'
[2] = biological target: second RNA-recognition motif (RRM2) of TDP-43, wild type, residues 191-265 (human) (UniProt Q13148); experiment: cross-linking; disulfide-linked oligomers on non-reducing SDS-PAGE (14% tris-glycine, Coomassie, densitometry); 1 mM protein incubated 2 h with 5 mM H2O2
[3] = biological target: second RNA-recognition motif (RRM2) of TDP-43, wild type, residues 191-265 (human) (UniProt Q13148); experiment: NMR HSQC peak intensities (fraction of globular monomer); reduced samples: first treated with 5 mM H2O2, then with 25 mM DTT
[4] = biological target: Q13148; experiment: NMR HSQC peak intensities (fraction of globular monomer); 1 mM RRM2 under oxidation with 5 mM H2O2 (2 h or 24 h); loss of monomer signals taken as conversion into oligomers and aggregate particles; standard phosphate buffer pH 6.7; settings: other: NMR HSQC peak intensities (fraction of globular monomer)
[5] = biological target: Q13148; experiment: NMR HSQC peak intensities (fraction of globular monomer); reduced samples: first treated with 5 mM H2O2, then with 25 mM DTT; settings: other: NMR HSQC peak intensities (fraction of globular monomer)
[6] = biological target: second RNA-recognition motif (RRM2) of TDP-43, wild type, residues 191-265 (human) (UniProt Q13148); experiment: NMR HSQC peak intensities (fraction of globular monomer); 1 mM RRM2 under oxidation with 5 mM H2O2 (2 h or 24 h); loss of monomer signals taken as conversion into oligomers and aggregate particles; standard phosphate buffer pH 6.7

fraction of cross-linked protein molecules (gel densitometry, 2 h with 5 mM H2O2) [2]: 40%
percent monomer in the reduced samples [3]: 84%
percent (mass fraction) left as globular monomer after 24 h with 5 mM H2O2 [6]: 4.5%
percent left as globular monomer after 2 h with 5 mM H2O2 [6]: 40%
B1: second RNA-recognition motif (RRM2) of TDP-43, wild type, residues 191-265 (protein)
chain: MRKVFVGRCTEDMTEDELREFFSQYGDVMDVFIPKPFRAFAFVTFADDQIAQSLCGEDLIIKGISVHISNAEPKHN
mass fraction of the aggregate mass in all other aggregate particles [1]: all other APs combined account for 83% of the aggregate mass
mass fraction of the aggregate mass that is disulfide-bonded dimers [1]: The mass fraction of the disulfide-bonded dimers is 17%
percent of the protein in aggregate particles after 2 h with 5 mM H2O2 [4]: 60% (±4%) of the protein has been transformed into APs
percent of protein mass still aggregated after 2 h oxidation and 3 h reduction [5]: ca. 19% of the protein by mass remains in the aggregate form
percent of protein mass still aggregated after 24 h oxidation and 24 h reduction [5]: ca. 40% of the protein mass in this sample remains in the aggregated state

Source: paper PMC5593996
